Assay results reported in publication PMC7954794, “Protein context shapes the specificity of SH3 domain-mediated interactions in vivo” (Nature Communications, 2021).

Test system: growth of yeast strains under 51 stress conditions
Experiment: Growth assays in 51 stress conditions (Fig. 1E-F, S2D, S5B)
Assay type: cell-based, Saccharomyces cerevisiae
Design: key to Growth (Fig. S2D) / growth of ABP1 SH3-swapped strains in stress condition: log2 colony size, average of median per strain (growth score)
Conditions: FigS2D
Outline: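 Yeast WT, SH3-deleted, KO, SH3-swapped and SH3-shuffled strains pinned in 1536 format, 12 replicates each; pregrown on YPD 2 days at 30 °C, then replicated onto 51 media at 37 °C and imaged every 2 h. Growth score = mean of per-plate median log2 colony size at 74 h.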

B1: SHO1 (protein, UniProt P40073 1-367, looked up)
High osmolarity signaling …: MSISSKIRPTPRKPSRMATDHSFKMKKFYADPFAISSISLAIVSWVIAIGGSISSASTNESFPRFTWWGIVYQFLIICSLMLFYCFDLVDHYRIFITTSIAVAFVYNTNSATNLVYADGPKKAAASAGVILLSIINLIWILYYGGDNASPTNRWIDSFSIKGIRPSPLENSLHRARRRGNRNTTPYQNNVYNDAIRDSGYATQFDGYPQQQPSHTNYVSSTALAGFENTQPNTSEAVNLHLNTLQQRINSASNAKETNDNSNNQTNTNIGNTFDTDFSNGNTETTMGDTLGLYSDIGDDNFIYKAKALYPYDADDDDAYEISFEQNEILQVSDIEGRWWKARRANGETGIIPSNYVQLIDGPEEMHR
growth of ABP1 SH3-swapped strains in stress condition (Bathophenanthroline.0.1uM): 10.8666
growth of ABP1 SH3-swapped strains in stress condition (Bathophenanthroline.10uM): 10.6802
growth of ABP1 SH3-swapped strains in stress condition (Bathophenanthroline.1uM): 10.8165
growth of ABP1 SH3-swapped strains in stress condition (CaCl2.100mM): 10.8196
growth of ABP1 SH3-swapped strains in stress condition (CaCl2.250mM): 10.7666
growth of ABP1 SH3-swapped strains in stress condition (CaCl2.500mM): 10.33
growth of ABP1 SH3-swapped strains in stress condition (Caffein.10mM): 9.975
growth of ABP1 SH3-swapped strains in stress condition (Caffein.2mM): 10.938
growth of ABP1 SH3-swapped strains in stress condition (CdCl2.100uM): 9.34
growth of ABP1 SH3-swapped strains in stress condition (CdCl2.10uM): 10.884
growth of ABP1 SH3-swapped strains in stress condition (CdCl2.50uM): 9.827
growth of ABP1 SH3-swapped strains in stress condition (CuSO4.1mM): 10.4931
growth of ABP1 SH3-swapped strains in stress condition (CuSO4.5mM): 7.806
growth of ABP1 SH3-swapped strains in stress condition (Cycloheximide.0.05.uM): 11.0905
growth of ABP1 SH3-swapped strains in stress condition (Cycloheximide.0.2.uM): 10.7035
growth of ABP1 SH3-swapped strains in stress condition (Cycloheximide.0.5.uM): 10.0394
growth of ABP1 SH3-swapped strains in stress condition (DMSO.2.): 11.0205
growth of ABP1 SH3-swapped strains in stress condition (DMSO.6.): 9.808
growth of ABP1 SH3-swapped strains in stress condition (DMSO.8.): 8.962
growth of ABP1 SH3-swapped strains in stress condition (Ethanol.2.): 10.7684
growth of ABP1 SH3-swapped strains in stress condition (Ethanol.6.): 10.4049
growth of ABP1 SH3-swapped strains in stress condition (Ethanol.8.): 10.2263
growth of ABP1 SH3-swapped strains in stress condition (Galactose.2.): 10.8154
growth of ABP1 SH3-swapped strains in stress condition (Glycerol.2.): 9.771
growth of ABP1 SH3-swapped strains in stress condition (Hydroxyurea.25mM): 10.7838
growth of ABP1 SH3-swapped strains in stress condition (Hygromycin.190uM): 10.9371
growth of ABP1 SH3-swapped strains in stress condition (Hygromycin.19uM): 10.9563
growth of ABP1 SH3-swapped strains in stress condition (Hygromycin.95uM): 10.9936
growth of ABP1 SH3-swapped strains in stress condition (MMS.0.004.): 10.9851
growth of ABP1 SH3-swapped strains in stress condition (MMS.0.02.): 10.7181
growth of ABP1 SH3-swapped strains in stress condition (MMS.0.04.): 10.0309
growth of ABP1 SH3-swapped strains in stress condition (Menadione.100uM): 10.5941
growth of ABP1 SH3-swapped strains in stress condition (Menadione.200uM): 10.4073
growth of ABP1 SH3-swapped strains in stress condition (Menadione.50uM): 10.7963
growth of ABP1 SH3-swapped strains in stress condition (NaCl.0.25M): 10.8224
growth of ABP1 SH3-swapped strains in stress condition (NaCl.1M): 9.702
growth of ABP1 SH3-swapped strains in stress condition (Nitroquinoline.10uM): 10.7342
growth of ABP1 SH3-swapped strains in stress condition (Nitroquinoline.50uM): 10.7229
growth of ABP1 SH3-swapped strains in stress condition (Nystatin.0.01uM): 11.0733
growth of ABP1 SH3-swapped strains in stress condition (Nystatin.0.1uM): 11.0089
growth of ABP1 SH3-swapped strains in stress condition (Raffinose.2.): 11.0381
growth of ABP1 SH3-swapped strains in stress condition (Rapamycin.10nM): 9.786
growth of ABP1 SH3-swapped strains in stress condition (Rapamycin.50nM): 9.424
growth of ABP1 SH3-swapped strains in stress condition (SC.pH3): 10.389
growth of ABP1 SH3-swapped strains in stress condition (SC.pH6): 11.0143
growth of ABP1 SH3-swapped strains in stress condition (SDS.0.01.): 10.9726
growth of ABP1 SH3-swapped strains in stress condition (SDS.0.02.): 10.9605
growth of ABP1 SH3-swapped strains in stress condition (SDS.0.05.): 10.8495
growth of ABP1 SH3-swapped strains in stress condition (Sorbitol.10mM): 10.9902
growth of ABP1 SH3-swapped strains in stress condition (Sorbitol.1mM): 11.0334
growth of ABP1 SH3-swapped strains in stress condition (Sorbitol.5mM): 10.9353

B2: YSC84 (protein, UniProt P32793 1-468, looked up)
Protein YSC84: MGINNPIPRSLKSETKKAAKVLRSFVKPNQVFGADQVIPPYVLKRAKGLAIITVLKAGFLFSGRAGSGVIVARLKDGTWSAPSAIAMAGAGAGGMVGVELTDFVFILNSEEAVRSFSEFGTITLGGNVSVSAGPLGRSAEAAASASTGGVSAVFAYSKSKGLFAGVSVEGSAILERREANRKFYGDNCTSKMILSGRVKVPPAADPLLRILESRAFNFTRHDHDDNASGDDFYDDGQYSDNTSHYYDDIPDSFDSTDESSTRPNTRSSRRRGMSLGSRSRYDDDYDDDGYGRGRGYGDFDSEDEDYDYGRSPNRNSSRNRGPQIDRGTKPRANTRWEDDLYDRDTEYSRPNHSGRDYDNTRGNRRGYGRERGYSLGHGPTHPSNMSNVDDLSHKMSKTGLGNESTATNSATPTAVALYNFAGEQPGDLAFKKGDVITILKKSDSQNDWWTGRTNGKEGIFPANYVRVS
growth of ABP1 SH3-swapped strains in stress condition (Bathophenanthroline.0.1uM): 10.863
growth of ABP1 SH3-swapped strains in stress condition (Bathophenanthroline.10uM): 10.6791
growth of ABP1 SH3-swapped strains in stress condition (Bathophenanthroline.1uM): 10.8306
growth of ABP1 SH3-swapped strains in stress condition (CaCl2.100mM): 10.8211
growth of ABP1 SH3-swapped strains in stress condition (CaCl2.250mM): 10.7492
growth of ABP1 SH3-swapped strains in stress condition (CaCl2.500mM): 10.2924
growth of ABP1 SH3-swapped strains in stress condition (Caffein.10mM): 10.0875
growth of ABP1 SH3-swapped strains in stress condition (Caffein.2mM): 11.0461
growth of ABP1 SH3-swapped strains in stress condition (CdCl2.100uM): 9.612
growth of ABP1 SH3-swapped strains in stress condition (CdCl2.10uM): 10.8942
growth of ABP1 SH3-swapped strains in stress condition (CdCl2.50uM): 9.965
growth of ABP1 SH3-swapped strains in stress condition (CuSO4.1mM): 10.4219
growth of ABP1 SH3-swapped strains in stress condition (CuSO4.5mM): 8.049
growth of ABP1 SH3-swapped strains in stress condition (Cycloheximide.0.05.uM): 11.0738
growth of ABP1 SH3-swapped strains in stress condition (Cycloheximide.0.2.uM): 10.6488
growth of ABP1 SH3-swapped strains in stress condition (Cycloheximide.0.5.uM): 10.1375
growth of ABP1 SH3-swapped strains in stress condition (DMSO.2.): 11.0761
growth of ABP1 SH3-swapped strains in stress condition (DMSO.6.): 9.8918
growth of ABP1 SH3-swapped strains in stress condition (DMSO.8.): 9.375
growth of ABP1 SH3-swapped strains in stress condition (Ethanol.2.): 10.7982
growth of ABP1 SH3-swapped strains in stress condition (Ethanol.6.): 10.2832
growth of ABP1 SH3-swapped strains in stress condition (Ethanol.8.): 10.0513
growth of ABP1 SH3-swapped strains in stress condition (Galactose.2.): 10.753
growth of ABP1 SH3-swapped strains in stress condition (Glycerol.2.): 9.905
growth of ABP1 SH3-swapped strains in stress condition (Hydroxyurea.25mM): 10.7776
growth of ABP1 SH3-swapped strains in stress condition (Hygromycin.190uM): 10.9721
growth of ABP1 SH3-swapped strains in stress condition (Hygromycin.19uM): 10.9865
growth of ABP1 SH3-swapped strains in stress condition (Hygromycin.95uM): 11.0398
growth of ABP1 SH3-swapped strains in stress condition (MMS.0.004.): 10.997
growth of ABP1 SH3-swapped strains in stress condition (MMS.0.02.): 10.758
growth of ABP1 SH3-swapped strains in stress condition (MMS.0.04.): 10.0132
growth of ABP1 SH3-swapped strains in stress condition (Menadione.100uM): 10.5944
growth of ABP1 SH3-swapped strains in stress condition (Menadione.200uM): 10.563
growth of ABP1 SH3-swapped strains in stress condition (Menadione.50uM): 10.853
growth of ABP1 SH3-swapped strains in stress condition (NaCl.0.25M): 10.8517
growth of ABP1 SH3-swapped strains in stress condition (NaCl.1M): 9.6266
growth of ABP1 SH3-swapped strains in stress condition (Nitroquinoline.10uM): 10.6185
growth of ABP1 SH3-swapped strains in stress condition (Nitroquinoline.50uM): 10.6333
growth of ABP1 SH3-swapped strains in stress condition (Nystatin.0.01uM): 10.9762
growth of ABP1 SH3-swapped strains in stress condition (Nystatin.0.1uM): 10.9958
growth of ABP1 SH3-swapped strains in stress condition (Raffinose.2.): 11.0249
growth of ABP1 SH3-swapped strains in stress condition (Rapamycin.10nM): 9.871
growth of ABP1 SH3-swapped strains in stress condition (Rapamycin.50nM): 9.5402
growth of ABP1 SH3-swapped strains in stress condition (SC.pH3): 10.4227
growth of ABP1 SH3-swapped strains in stress condition (SC.pH6): 10.9991
growth of ABP1 SH3-swapped strains in stress condition (SDS.0.01.): 11.0315
growth of ABP1 SH3-swapped strains in stress condition (SDS.0.02.): 11.0179
growth of ABP1 SH3-swapped strains in stress condition (SDS.0.05.): 10.9653
growth of ABP1 SH3-swapped strains in stress condition (Sorbitol.10mM): 10.9675
growth of ABP1 SH3-swapped strains in stress condition (Sorbitol.1mM): 11.0498
growth of ABP1 SH3-swapped strains in stress condition (Sorbitol.5mM): 10.8766
